Source: PMC10641899, “Identification of HuR–RNA Interfering Compounds by Dynamic Combinatorial Chemistry and Fluorescence Polarization”

Biological target: HuR RRM1+2 (RRM1/2) (UniProt Q15717 1-186)
Assay: fluorescence polarization; 2.4 uM HuR RRM1/2, 45 nM RNA, 15% DMSO; complex 105 mP vs free RNA 35 mP; FP: PBS (20 mM sodium phosphate, 150 mM NaCl, 1 mM DTT, 0.05% Pluronic-127, 15% DMSO), 293 K; pH not stated
Conditions: protein: recombinant; tags: N-terminal His6-TEV, tag cleaved and removed; label: 5'-FAM; single strand

HuR RRM1+2 (RRM1/2), sequence (Q15717 1-186): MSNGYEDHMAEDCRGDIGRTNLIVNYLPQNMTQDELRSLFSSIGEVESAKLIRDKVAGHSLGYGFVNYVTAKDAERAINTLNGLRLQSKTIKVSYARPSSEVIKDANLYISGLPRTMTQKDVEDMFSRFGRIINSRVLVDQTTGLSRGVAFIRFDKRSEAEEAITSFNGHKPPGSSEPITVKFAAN

B1: 5'-FAM ARE RNA probe (ssRNA)
RNA: UAUUUAUUUA
  binding result: binds
